Experimental data from patent US20130287702A1 (CASE WESTERN RESERVE UNIVERSITY, published 2013).
One block for each binder: values may come before it. Where no end group is shown, it is not given here.

Assays:
[1] = target: T1, proteolytically cleaved PTPµ extracellular fragment in tumors of human LN-229 glioma cells (human, UniProt P28827 21-477, limits assumed); experiment: fluorescent probe labeling of fixed LN-229-GFP flank tumor sections
T1 construct: The target is endogenous material deposited in tumor tissue, not a purified protein; also called proteolyzed extracellular fragment of PTPµ; PTPµ fragment
T1 sequence: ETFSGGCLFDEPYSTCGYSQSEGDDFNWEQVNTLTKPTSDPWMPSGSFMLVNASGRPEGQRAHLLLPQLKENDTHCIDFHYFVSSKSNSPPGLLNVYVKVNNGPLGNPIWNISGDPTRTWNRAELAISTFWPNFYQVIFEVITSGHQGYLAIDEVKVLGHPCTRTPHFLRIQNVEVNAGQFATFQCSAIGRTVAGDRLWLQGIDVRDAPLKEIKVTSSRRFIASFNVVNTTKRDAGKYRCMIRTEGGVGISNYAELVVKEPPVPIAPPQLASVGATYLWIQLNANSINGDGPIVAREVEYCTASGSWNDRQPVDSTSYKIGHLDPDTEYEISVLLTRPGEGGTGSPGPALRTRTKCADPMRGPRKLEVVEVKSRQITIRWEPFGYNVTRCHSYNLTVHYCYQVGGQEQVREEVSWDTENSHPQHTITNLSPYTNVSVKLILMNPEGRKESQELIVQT
Excerpt: The sections were rinsed with phosphate-buffered saline, coverslipped with Citifluor Antifadent Mounting Medium (Electron Microscopy Sciences), and imaged immediately at ×20 magnification on a Leica DMI 6000 B inverted microscope (Leica Microsystems GmbH, Wetzlar, Germany) using a Retiga EXi camera (QImaging, Surrey, BC) and Metamorph software (MolecularDevices, Downington, Pa.). Images were acquired across the entire tissue using bright-field and fluorescence optics for fluorescein (GFP) and Texas Red (probe). The resultant images were tiled and flattened to form a single composite image using Metamorph software.
Zoomed MR and corresponding heat map images for the tumor are shown (FIG. 15A). […] The corresponding flank tumor sections were incubated with SBK2-Texas Red or scrambled Texas Red probes. SBK2-Texas Red labeled the entire tumor with greatest intensity in the tumor center (FIG. 15B). This pattern is similar to that observed in the MR images following labeling with the SBK2-Tris-(Gd-DOTA)₃ probe. […] Anti-human vimentin antibody was used to label all the human cells in the mouse flank. […] Similar gradients of PTPμ extracellular fragment, as detected by the SBK2 probe, have been observed previously.

[2] = target: T1, proteolytically cleaved PTPµ …; experiment: in vivo labeling of glioma intracranial tumors, Cy5 cryo-imaging

- binding result [1]: no binding (tested: 1 µM)
Binder: GFTQPETGTDNDLWSVDNEK (not fully specified (N-terminus); also: Texas Red label, site not given here) [scrambled Texas Red probe]

- binding result [2]: no binding
B1: scrambled-Cy5 probe (peptide)
peptide: GFTQPETGTDNDLWSVDNEK
modifications: not fully specified (N-terminus)
notes: Same uncertainty about the added N-terminal glycine as for SBK2-Cy5; also called scrambled probe; scrambled version of the PTPµ probe
